Legend:
[1] = target: Neurocan-alkaline phosphatase (UniProt P55066 23-1268, chondroitin sulfate glycosaminoglycan chains); test: solid-phase binding assay
glypican-2-AP = target: T1, glypican-2-AP (UniProt Q8BKV1 22-556, heparan sulfate glycosaminoglycan chains); test: solid-phase binding assay
T1 sequence (looked up): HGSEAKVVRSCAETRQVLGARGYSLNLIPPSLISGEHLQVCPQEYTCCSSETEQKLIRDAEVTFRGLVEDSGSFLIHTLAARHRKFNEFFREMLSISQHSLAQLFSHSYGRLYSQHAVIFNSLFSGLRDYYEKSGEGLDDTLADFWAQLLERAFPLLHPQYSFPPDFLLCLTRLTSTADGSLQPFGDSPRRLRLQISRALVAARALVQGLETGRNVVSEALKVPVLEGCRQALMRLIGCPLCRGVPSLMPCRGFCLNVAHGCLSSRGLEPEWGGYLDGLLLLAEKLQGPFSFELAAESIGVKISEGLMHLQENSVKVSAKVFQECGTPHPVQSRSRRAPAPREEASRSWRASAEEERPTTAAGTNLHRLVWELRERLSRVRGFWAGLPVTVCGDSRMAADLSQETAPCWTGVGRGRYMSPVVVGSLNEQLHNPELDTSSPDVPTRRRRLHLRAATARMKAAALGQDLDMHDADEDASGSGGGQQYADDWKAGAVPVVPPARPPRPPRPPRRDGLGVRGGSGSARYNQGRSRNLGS

Neurocan-alkaline phosphatase, sequence (P55066 23-1268): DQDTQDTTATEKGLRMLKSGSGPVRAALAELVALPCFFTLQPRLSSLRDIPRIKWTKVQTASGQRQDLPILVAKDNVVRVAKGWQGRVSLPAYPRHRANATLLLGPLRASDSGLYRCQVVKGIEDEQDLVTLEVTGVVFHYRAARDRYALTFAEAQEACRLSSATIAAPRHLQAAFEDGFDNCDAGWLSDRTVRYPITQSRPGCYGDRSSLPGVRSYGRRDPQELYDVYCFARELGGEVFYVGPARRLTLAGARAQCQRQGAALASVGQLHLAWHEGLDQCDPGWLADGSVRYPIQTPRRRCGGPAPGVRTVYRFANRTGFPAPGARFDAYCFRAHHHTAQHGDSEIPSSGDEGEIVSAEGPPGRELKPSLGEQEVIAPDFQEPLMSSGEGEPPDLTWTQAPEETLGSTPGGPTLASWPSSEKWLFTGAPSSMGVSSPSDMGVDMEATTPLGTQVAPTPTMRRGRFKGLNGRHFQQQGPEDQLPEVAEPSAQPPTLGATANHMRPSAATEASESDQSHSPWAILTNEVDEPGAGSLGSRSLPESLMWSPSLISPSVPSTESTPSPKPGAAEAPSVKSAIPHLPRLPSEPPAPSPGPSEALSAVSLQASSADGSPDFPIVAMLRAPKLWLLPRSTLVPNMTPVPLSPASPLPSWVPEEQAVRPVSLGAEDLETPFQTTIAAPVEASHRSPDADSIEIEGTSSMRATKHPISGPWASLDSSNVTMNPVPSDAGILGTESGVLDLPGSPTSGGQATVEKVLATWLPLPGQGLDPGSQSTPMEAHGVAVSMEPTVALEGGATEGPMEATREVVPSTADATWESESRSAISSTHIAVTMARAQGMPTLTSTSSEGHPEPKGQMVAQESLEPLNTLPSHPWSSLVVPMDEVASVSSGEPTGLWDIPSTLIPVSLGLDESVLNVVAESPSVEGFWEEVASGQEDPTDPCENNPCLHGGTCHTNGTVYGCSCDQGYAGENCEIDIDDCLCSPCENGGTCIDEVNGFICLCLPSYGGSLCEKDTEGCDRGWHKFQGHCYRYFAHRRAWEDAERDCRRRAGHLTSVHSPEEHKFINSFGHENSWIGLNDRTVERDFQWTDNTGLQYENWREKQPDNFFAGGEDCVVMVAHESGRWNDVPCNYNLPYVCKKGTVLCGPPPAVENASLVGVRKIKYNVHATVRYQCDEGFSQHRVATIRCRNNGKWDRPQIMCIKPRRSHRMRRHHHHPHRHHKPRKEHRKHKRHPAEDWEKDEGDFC

Kd [1]: ~21 nM
Kd (glypican-2-AP): ~10 nM
B1: mouse RPTPσ sEcto-Fc (Fc fusion)
chain: EEPPRFIREPKDQIGVSGGVASFVCQATGDPKPRVTWNKKGKKVNSQRFETIDFDESSGAVLRIQPLRTPRDENVYECVAQNSVGEITIHAKLTVLREDQLPPGFPNIDMGPQLKVVERTRTATMLCAASGNPDPEITWFKDFLPVDPSASNGRIKQLRSGALQIESSEETDQGKYECVATNSAGVRYSSPANLYVRVRRVAPRFSILPMSHEIMPGGNVNITCVAVGSPMPYVKWMQGAEDLTPEDDMPVGRNVLELTDVKDSANYTCVAMSSLGVIEAVAQITVKSLPKAPGTPVVTENTATSITVTWDSGNPDPVSYYVIEYKSKSQDGPYQIKEDITTTRYSIGGLSPNSEYEIWVSAVNSIGQGPPSESVVTRTGEQAPASAPRNVQARMLSATTMIVQWEEPVEPNGLIRGYRVYYTMEPEHPVGNWQKHNVDDSLLTTVGSLLEDETYTVRVLAFTSVGDGPLSDPIQVKTQQGVPGQPMNLRAEAKSETSIGLSWSAPRQESVIKYELLFREGDRGREVGRTFDPTTAFVVEDLKPNTEYAFRLAARSPQGLGAFTAVVRQRTLQAISPKNFKVKMIMKTSVLLSWEFPDNYNSPTPYKIQYNGLTLDVDGRTTKKLITHLKPHTFYNFVLTNRGSSLGGLQQTVTARTAFNMLSGKPSVAPKPDNDGFIVVYLPDGQSPVTVQNYFIVMVPLRKSRGGQFPVLLGSPEDMDLEELIQDISRLQRRSLRHSRQLEVPRPYIAARFSILPAVFHPGNQKQYGGFDNRGLEPGHRYVLFVLAVLQKNEPTFAASPFSDPFQLDNPDPQPIVDGEEG
